{"source": "paper PMC9938351", "experiment_in_all_cases": "ITC", "key": {"[1]": {"target": "SARS-CoV-2 Ubl1 E95A (SARS-CoV-2)"}, "[2]": {"target": "SARS-CoV-2 ubiquitin-like domain 1 (Ubl1) of Nsp3 (residues 1–111) (SARS-CoV-2)"}, "[3]": {"target": "SARS-CoV-2 Ubl1 Y103A (SARS-CoV-2)"}, "[4]": {"target": "SARS-CoV-2 Ubl1 D110A (SARS-CoV-2)"}, "[5]": {"target": "SARS-CoV-2 Ubl1 E26A (SARS-CoV-2)"}}, "note": "pKd: −log10 of the molar value.", "data": [{"substance": "SARS-CoV-2 N protein N-terminal domain (NTD, residues 47–174) (from UniProt P0DTC9 47-174) (domain or fragment)", "values": [{"measurement": "pKd", "setting": "[1]", "value": 4.27}, {"measurement": "dH", "setting": "[1]", "value": -5.2, "unit": "kJ/mol"}, {"measurement": "stoichiometry N", "setting": "[1]", "value": 0.75}, {"measurement": "pKd", "setting": "[2]", "value": 4.77}, {"measurement": "dH", "setting": "[2]", "value": -11.3, "unit": "kJ/mol"}, {"measurement": "stoichiometry N", "setting": "[2]", "value": 0.73}, {"measurement": "pKd", "setting": "[3]", "value": 4.24}, {"measurement": "dH", "setting": "[3]", "value": -3.1, "unit": "kJ/mol"}, {"measurement": "stoichiometry N", "setting": "[3]", "value": 0.57}, {"measurement": "pKd", "setting": "[4]", "value": 4.29}, {"measurement": "dH", "setting": "[4]", "value": -11.1, "unit": "kJ/mol"}, {"measurement": "stoichiometry N", "setting": "[4]", "value": 0.64}, {"measurement": "pKd", "setting": "[5]", "value": 4.10}, {"measurement": "dH", "setting": "[5]", "value": -14.1, "unit": "kJ/mol"}, {"measurement": "stoichiometry N", "setting": "[5]", "value": 0.74}]}, {"substance": "SARS-CoV-2 N-NTD R92A (from UniProt P0DTC9 47-174) (domain or fragment)", "values": [{"measurement": "pKd", "setting": "[2]", "value": 4.25}, {"measurement": "dH", "setting": "[2]", "value": -13.3, "unit": "kJ/mol"}, {"measurement": "stoichiometry N", "setting": "[2]", "value": 0.58}]}]}
